The target in the series is T1, UB2 (UNBRANCHED2), GST fusion (Zea mays, UniProt A0A804LTB0 =M+82-402, internal_change).
T1 sequence: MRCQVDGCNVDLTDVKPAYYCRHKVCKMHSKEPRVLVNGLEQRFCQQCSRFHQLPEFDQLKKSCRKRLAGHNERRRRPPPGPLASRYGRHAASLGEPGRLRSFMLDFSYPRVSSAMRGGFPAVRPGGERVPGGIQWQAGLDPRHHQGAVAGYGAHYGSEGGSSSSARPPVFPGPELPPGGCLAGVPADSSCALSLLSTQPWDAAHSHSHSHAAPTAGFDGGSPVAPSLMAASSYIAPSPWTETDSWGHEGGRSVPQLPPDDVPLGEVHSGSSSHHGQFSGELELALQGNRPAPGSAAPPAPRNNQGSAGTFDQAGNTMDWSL
As to the kind of experiment: EMSA; poly(dI-dC), 5 mM MgCl2; EMSA: 10 mM Tris pH 7.5, 50 mM KCl, 1 mM DTT, 5 mM MgCl2, 2.5% glycerol, poly(dI-dC), 0.05% NP-40; 20-40 ng protein, probe 10 fM (so in the source); room temperature. The following applies: protein: recombinant; tags: N-GST (pGEX-4T-1); label: 5'-biotin; blunt.

B1: KRN4-P4 probe (EP4) (dsDNA)
DNA 1: GCGTGTTGCCTACTTGCACTAGAGAGTACGTGAGGCAAACCAAATGTTTTCTAGCGAAC
DNA 2: GTTCGCTAGAAAACATTTGGTTTGCCTCACGTACTCTCTAGTGCAAGTAGGCAACACGC
For the molecule B1, the binding result is given as “binds”.

B2: pUB3-P1 probe (EPUB3) (dsDNA)
DNA 1: GCCGAGGGCTTTTTGTAGACGCCAGGTACTTGCGCTTGTGGCGGCGAGCCGAGCG
DNA 2: CGCTCGGCTCGCCGCCACAAGCGCAAGTACCTGGCGTCTACAAAAAGCCCTCGGC
Take B2: the binding result is reported as “binds”.

The record behind these values is publication PMC7202667, “UNBRANCHED3 Expression and Inflorescence Development is Mediated by UNBRANCHED2 and the Distal Enhancer, KRN4, in Maize”.
